This is an account of results in article PMC11050134.

Among the targets are fetuin (UniProt P12763); transferrin (UniProt P02787); asialo-transferrin (UniProt P02787); asialo-fetuin (UniProt P12763).
For test [1], the target named is influenza viral envelope hemagglutinin, vaccine preparation (Denka-Seken) with a mixture of the hema (influenza A virus (H1N1, H3N2) and influenza B virus). Nature of the test: SPR; BIAcore X100; […]; HBS-N (10 mM HEPES, 150 mM NaCl, pH 7.4), 30 μL/min, […], dissociation 600 s; Langmuir 1:1 fit. In general terms: Surface plasmon resonance follows binding to a sensor surface in real time, without labels.

The target in test [2] is Halimeda borneensis lectin HBL40 (Halimeda borneensis). Put plainly: SDS-PAGE, non-reducing against reducing; purified HBL40 on 12% gel with and without 2% 2-mercaptoethanol, Coomassie stain; about 40 kDa non-reducing, 20 kDa reducing.
The target of test [3] is asialo-porcine thyroglobulin (porcine) (UniProt F1RRV3).
In test [4] the target is bovine submaxillary mucin (bovine).
For test [5], the target named is porcine thyroglobulin (porcine) (UniProt F1RRV3).
The target of test [6] is asialo-bovine submaxillary mucin (bovine).

By Kd is commonly meant the free concentration of one partner at which half of the binding sites on the other are occupied at equilibrium, for simple one-to-one binding. A word on the koff: it is a measure of how fast the partners let go of each other. The kon is the rate constant with which the complex forms. Broadly, the stoichiometry N is a count of units in the complex or per binding partner. As for “Halimeda borneensis lectin HBL40 (natural protein)”, the dissociation constant (Kd) in test [1] amounted to 1210 nM. Besides, in test [1], the koff came out at 0.0433 s⁻¹. For the same substance, the kon in [1] came to 35600 M⁻¹ s⁻¹. The same substance displayed a stoichiometry N in test [2] of 2. Moreover, the hemagglutination inhibition (trypsin-treated rabbit erythrocytes): lowest concentration of glycoprotein that completely inhibited the hemagglutination activity of a lectin solution of titer 4 is 15.6 µg/mL in [3]; 1000 µg/mL with fetuin; 500 µg/mL with transferrin; 62.5 µg/mL in test [4]; 62.5 µg/mL with asialo-transferrin; 31.3 µg/mL in test [5]. The values for the hemagglutination inhibition (trypsin-treated rabbit erythrocytes): lowest concentration of glycoprotein that completely inhibited the hemagglutination activity of a lectin solution of titer 4 (in the test with asialo-fetuin; in [6]) were 125 µg/mL and 31.3 µg/mL, respectively.
